According to publication PMC5412568 (The Journal of Cell Biology, 2017):
Substitutions are numbered along the chain they refer to. In names and notes the source's numbering stands. Like-named read-outs stand apart in the source and are kept apart here.

B1: cytoDATL (aa 1-415) G343C, K320T (domain or fragment)
chain: MGGSAVQVINASEEHTFVLNEDALSEVLMRDEVKDRFVCVVSVAGAFRKGKSFLLDFFLRYMYSKYVHHDATDWLGGESDPLEGFSWRGGSERDTTGILMWSDIFLHDYPNGDKIAIILLDTQGAFDSQSTVRDCATVFALSTMLSSVQIYNLSQNIQEDDLQHLQLFTEYGRLALADTGKKPFQRLQFLVRDWSFPYEAEYGALGGDKILKRRLEVSDKQHPELQSLRRHISSCFTEVACFLMPHPGLNVATNPKFDGRLQDITPEFKSSLRSLVPMLLAPDNLVYKEISGQRVRARDLIQYFQSYMNIYKGNELPEPTSMLVATAEANHLTAVAAAKELYCQLMEEVCGGTRPYLSTAHLQTEHLRVKDKALFQFAAKRKMGGEEFTEKFRKQLEDDLEEVFTNYQAHNESKN
modifications: Cy3 maleimide on the engineered cysteine G343C in the PIFE assays; unlabelled in cross-linking
B2: cytoDATL (aa 1-415) G343C, K320M (domain or fragment)
chain: B1 chain with T320M
modifications: Cy3 maleimide on the engineered cysteine G343C in the PIFE assays; unlabelled in cross-linking
B3: cytoDATL (aa 1-415) G343C, K320G (domain or fragment)
chain: B1 chain with T320G
modifications: Cy3 maleimide on the engineered cysteine G343C in the PIFE assays; unlabelled in cross-linking
B4: cytoDATL (aa 1-415) G343C, K320N (domain or fragment)
chain: B1 chain with T320N
modifications: Cy3 maleimide on the engineered cysteine G343C in the PIFE assays; unlabelled in cross-linking
B5: cytoDATL (aa 1-415) G343C, P317G (domain or fragment)
chain: B1 chain with P317G, T320K
modifications: Cy3 maleimide on the engineered cysteine G343C in the PIFE assays; unlabelled in cross-linking
B6: cytoDATL (aa 1-415) K320G with mCerulean3 at the C terminus (domain or fragment)
chain: B1 chain with T320G, C343G
B7: cytoDATL (aa 1-415) G343C, K320E, E328R (domain or fragment)
chain: B1 chain with T320E, E328R
modifications: Cy3 maleimide on the engineered cysteine G343C

Legend:
[1] = molecular target: the molecule itself; experiment: protein-induced fluorescence enhancement
[2] = molecular target: cytoDATL (aa 1-415) K320G with super YFP at the C terminus (D. melanogaster, UniProt Q9VC57 1-415, K320G); experiment: FRET or BRET
[3] = molecular target: the molecule itself; experiment: protein-induced fluorescence enhancement; remark: listed apart in the source

Binder | binding result [1] | further results
B1 | binds | 
B2 | binds | 
B3 | binds | 
B4 | binds | 
B5 | binds | 
B6 |  | binding result [2]: binds
B7 |  | binding result [3]: binds
